Experimental findings from PMC7308502, “Genome Segregation by the Venus Flytrap Mechanism: Probing the Interaction Between the ParF ATPase and the ParG Centromere Binding Protein” (Frontiers in Molecular Biosciences, 2020) are described below.

Assay [1] deals with T1, ParF (Salmonella enterica, UniProt Q9KJ83).
T1 construct: full-length, His-tagged (pET-22b(+)), produced in E. coli BL21(DE3); monomer with ADP, dimer and higher-order with ATP
T1 sequence (Q9KJ83 1-206): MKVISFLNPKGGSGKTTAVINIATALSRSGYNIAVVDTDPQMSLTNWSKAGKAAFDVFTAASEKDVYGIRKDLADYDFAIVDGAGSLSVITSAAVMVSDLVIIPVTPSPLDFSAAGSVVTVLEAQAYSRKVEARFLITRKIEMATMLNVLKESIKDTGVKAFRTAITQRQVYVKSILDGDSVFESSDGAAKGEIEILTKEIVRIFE
Description: sedimentation assay of higher-order assembly. Conditions: 2 mM nucleotide, 5 mM MgCl2, 30 mM Tris-HCl pH 8.0, 100 mM KCl, 30 °C. In kind it is binding. From the text: sedimentation assay of higher-order assembly on ParF | ATP or non-hydrolyzable ATPγS increased the levels of higher-order assemblies of wild-type ParF

For assay [2], the target named is T1, ParF. The assay can be described thus: fluorescence anisotropy titration. The conditions noted are these: read-out: apparent Kd; 20 mM HEPES, 150 mM NaCl, 1 mM MgCl2, pH 7.0; 0.9 μM labelled compound; possible hydrolysis during measurement. Format: binding.
For assay [3], the target named is wild-type ParF, His-tagged, purified (plasmid TP228 (in Escherichia coli)).
Assay [4] shares this target. The assay can be described thus: co-sedimentation.
Assay [5] concerns the target wild-type ParF fused to the T18 or T25 fragment of Bordetella pertussis adenylate cyclase (plasmid TP228 (in Escherichia coli)). Description: two-hybrid.

Consider `Nc1ncnc2c1ncn2[C@@H]1O[C@H](COP(=O)(O)OP(=O)(O)OP(=O)(O)O)[C@@H](O)[C@H]1O` [ATP], for which, in assay [1], the “fold increase in pellet fraction” value is listed as ~ 2 fold.

Consider `Nc1ncnc2c1ncn2[C@@H]1O[C@H](COP(=O)(O)OP(=O)(O)OP(O)(O)=S)[C@@H](O)[C@H]1O` [ATPγS], for which the “fold increase in pellet fraction” value in assay [1] is recorded as ~ 2 fold.

For `CNc1ccccc1C(=O)O[C@H]1[C@@H](O)[C@H](n2cnc3c(N)ncnc32)O[C@@H]1CO[P@@](=O)(O)O[P@](=O)(O)OP(=O)(O)O` [MANT-ATP], the Kd in assay [2] was approximately 500 nM.

Consider “ParG, His-tagged, purified (natural protein)”, for which the fold stimulation of ParF ATPase activity by ParG (ParF 1 μM, ParG 0-20 μM, 5 μM ATP) in assay [3] was found to be 20 fold. The compound also had a percent of ParG in the pellet fraction (with ATPγS) in assay [4] of 50%.

In turn, “wild-type ParF fused to the T18 or T25 fragment of Bordetella pertussis adenylate cyclase (natural protein)” had a β-galactosidase units (β-galactosidase units) in assay [5] of 700.

In the case of “wild-type ParF, His-tagged, purified (enzyme)”, the percent of ParF in the pellet fraction (with ParG and ATPγS) in assay [4] worked out at 80%.
